{"source": "patent US20120301476A1", "about": "(TORAY INDUSTRIES, published 2012)", "key": {"[1]": {"target": "T1, human CAPRIN-1 protein on the cell surfaces of human cancer cell lines and in human cancer tissues (human, UniProt Q14444 2-709)", "T1 sequence (looked up)": "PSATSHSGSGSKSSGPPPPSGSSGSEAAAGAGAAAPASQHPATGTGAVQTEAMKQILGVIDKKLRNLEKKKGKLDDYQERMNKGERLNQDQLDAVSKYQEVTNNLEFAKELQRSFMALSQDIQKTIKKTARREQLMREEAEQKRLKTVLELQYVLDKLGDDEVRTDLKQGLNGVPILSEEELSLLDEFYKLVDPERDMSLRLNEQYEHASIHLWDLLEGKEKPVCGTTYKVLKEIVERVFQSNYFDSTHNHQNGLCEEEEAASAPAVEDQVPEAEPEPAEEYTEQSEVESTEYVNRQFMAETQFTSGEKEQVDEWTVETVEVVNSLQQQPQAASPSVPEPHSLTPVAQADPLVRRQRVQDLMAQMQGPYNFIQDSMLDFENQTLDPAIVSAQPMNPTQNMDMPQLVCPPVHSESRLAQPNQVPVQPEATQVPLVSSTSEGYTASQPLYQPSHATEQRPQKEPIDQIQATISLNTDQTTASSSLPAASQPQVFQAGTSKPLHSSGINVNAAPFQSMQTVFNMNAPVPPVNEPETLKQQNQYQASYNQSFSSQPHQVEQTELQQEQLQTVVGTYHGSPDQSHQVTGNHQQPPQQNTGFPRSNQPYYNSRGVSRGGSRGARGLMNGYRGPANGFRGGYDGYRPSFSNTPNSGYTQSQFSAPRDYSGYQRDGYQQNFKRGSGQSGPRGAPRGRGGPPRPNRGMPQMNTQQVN", "assay": "cell-based or functional assay"}, "[2]": {"target": "T2, recombinant human CAPRIN-1 protein having the amino acid sequence represented by SEQ ID NO: 2 (prepared in … (human, UniProt Q14444 1-709, limits assumed))", "T2 construct": "Expressed in E. coli from pET30a; the His-tag was cleaved off with enterokinase; also called CAPRIN-1 recombinant protein; CAPRIN-1 molecule", "T2 sequence": "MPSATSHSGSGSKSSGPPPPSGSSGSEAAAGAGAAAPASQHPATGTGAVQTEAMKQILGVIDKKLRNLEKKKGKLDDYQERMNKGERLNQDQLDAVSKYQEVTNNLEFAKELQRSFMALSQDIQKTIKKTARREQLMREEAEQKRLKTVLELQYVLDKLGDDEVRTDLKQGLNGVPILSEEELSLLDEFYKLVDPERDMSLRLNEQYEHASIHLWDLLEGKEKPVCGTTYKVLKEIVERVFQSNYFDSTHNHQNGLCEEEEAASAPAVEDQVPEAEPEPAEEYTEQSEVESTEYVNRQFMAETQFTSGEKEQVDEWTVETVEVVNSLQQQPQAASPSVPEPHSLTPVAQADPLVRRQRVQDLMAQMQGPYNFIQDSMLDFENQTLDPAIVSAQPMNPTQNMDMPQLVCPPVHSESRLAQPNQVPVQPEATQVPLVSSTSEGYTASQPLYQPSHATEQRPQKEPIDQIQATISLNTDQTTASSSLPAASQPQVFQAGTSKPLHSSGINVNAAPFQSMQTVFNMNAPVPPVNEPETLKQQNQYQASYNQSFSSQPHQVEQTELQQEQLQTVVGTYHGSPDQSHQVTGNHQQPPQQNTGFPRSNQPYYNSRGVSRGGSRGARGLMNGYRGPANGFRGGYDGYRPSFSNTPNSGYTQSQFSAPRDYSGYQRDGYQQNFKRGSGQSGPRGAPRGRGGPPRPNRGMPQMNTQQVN", "assay": "SPR (BIACORE2000), CAPRIN-1 recombinant protein amine-coupled to CM5 chip, antibody as analyte", "method": "As a reference control (reference cell), a sensor chip with 20 μg/ml bovine serum-derived albumin immobilized thereto by the same method was used. A sensor chip to which the CAPRIN-1 molecule had been immobilized was set in BIACORE2000, 40 μL, each of the antibody solution (analyte) prepared to have a concentration (100, 80, 40, 20, 10, 5, or 2.5 μg/mL) was applied at a flow rate of 20 μL/minute, the surface plasmon resonance angle at the time of binding of an antibody to the CAPRIN-1 molecule immobilized on the sensor chip was measured, so that each RU value (Resonance Unit) was obtained. Next, a running buffer HBS-EP solution (GE) was applied and then the resonance angle upon dissociation of the antibody from the CAPRIN-1 molecule was measured, and then the RU value at this time was obtained. An antibody solution was similarly applied to a reference control (reference cell) sensor chip, the resonance angle at the time of immobilization reaction and the resonance angle at the time of dissociation reaction were measured, and thus the background RU values were obtained. […] Association rate constant (kₒₙ) and dissociation rate constant (koff) were found from the thus obtained RU value at each antibody concentration using affinity analysis software BIA evaluation, so that affinity constant Ka(=kₒₙ/koff) was calculated."}}, "data": [{"binder": "human-chicken chimeric antibody #1 having the chicken monoclonal antibody #1 variable region (antibody, V domains shown, also called anti-CAPRIN-1 antibody #1; human-chicken chimeric monoclonal antibody (#1); not shown: human IgG1 H-chain constant region; human IgG1 L-chain constant region) VH: AVTLDESGGGLQMSRGGLSLVCKASGFDFSSYQMNWIRQAPGKGLEFVAAINKFGNSTGHGAAVKGRVTISRDNGQSTVRLQLNNLRAEDTAIYFCTKHAYGYCGSGTWCAAGEIDAWGHGTEVIVSS VL: QAASTQPSSVSANPGETVEITCSGGGSYSYGWFQQKSPGSAPVTVIYYNNKRPSDIPSRFSGSKSGSTGTLTITGVQADDEAVYYCGSGDSTDTAVFGAGTTLTVLG", "values": [{"measurement": "cytotoxic activity (ADCC) against A549", "setting": "[1]", "value": 36.3, "unit": "%"}, {"measurement": "cytotoxic activity (ADCC) against ACHN", "setting": "[1]", "value": 26, "unit": "%"}, {"measurement": "cytotoxic activity (ADCC) against AML5", "setting": "[1]", "value": 13.1, "unit": "%"}, {"measurement": "cytotoxic activity (ADCC) against Caki-1", "setting": "[1]", "value": 27, "unit": "%"}, {"measurement": "cytotoxic activity (ADCC) against KYSE180", "setting": "[1]", "value": 27.6, "unit": "%"}, {"measurement": "cytotoxic activity (ADCC) against MDA-MB-157", "setting": "[1]", "value": 40, "unit": "%"}, {"measurement": "cytotoxic activity (ADCC) against MNK28", "setting": "[1]", "value": 21.7, "unit": "%"}, {"measurement": "cytotoxic activity (ADCC) against MNK45", "setting": "[1]", "value": 25.3, "unit": "%"}, {"measurement": "cytotoxic activity (ADCC) against QG56", "setting": "[1]", "value": 33, "unit": "%"}, {"measurement": "cytotoxic activity (ADCC) against Ramos", "setting": "[1]", "value": 11.7, "unit": "%"}, {"measurement": "cytotoxic activity (ADCC) against SW480", "setting": "[1]", "value": 26.9, "unit": "%"}, {"measurement": "cytotoxic activity (ADCC) against SW756", "setting": "[1]", "value": 29.7, "unit": "%"}, {"measurement": "cytotoxic activity (ADCC) against T24", "setting": "[1]", "value": 25.6, "unit": "%"}, {"measurement": "cytotoxic activity (ADCC) against T98G", "setting": "[1]", "value": 18, "unit": "%"}, {"measurement": "cytotoxic activity (ADCC) against U373", "setting": "[1]", "value": 23.3, "unit": "%"}, {"measurement": "Ka", "setting": "[2]", "value": "4.6e+07", "unit": "M⁻¹"}]}]}
